US5563039, “TNF receptor-associated intracellular signaling proteins and methods of use” (Tularik, Inc., dated 1996)
Each block holds one binder with its values, some of them ahead of it.

Experiments:
[1] = biological target: cytoplasmic domain of Fas antigen expressed as GAL4bd chimera (yeast, UniProt P04386); assay: yeast two-hybrid, strain SFY526
[2] = biological target: GST fusion protein containing the cytoplasmic domain of Fas antigen (Homo sapiens (Human), UniProt P25445); assay: GST pull-down of 35S-labeled TRADD

binding result [1]: no binding
B1: GAL4ad-TRADD (GAL4 activation domain fused to full length TRADD) (other)
chain: MAAGQNGHEEWVGSAYLFVESSLDKVVLSDAYAHPQQKVAVYRALQAALAESGGSPDVLQMLKIHRSDPQLIVQLRFCGRQPCGRFLRAYREGALRAALQRSLAAALAQHSVPLQLELRAGAERLDALLADEERCLSCILAQQPDRLRDEELAELEDALRNLKCGSGARGGDGEVASAPLQPPVPSLSEVKPPPPPPPAQTFLFQGQPVVNRPLSLKDQQTFARSVGLKWRKVGRSLQRGCRALRDPALDSLAYEYEREGLYEQAFQLLRRFVQAEGRRATLQRLVEALEENELTSLAEDLLGLTDPNGGLA

binding result [2]: no binding
B2: 35S-labeled TRADD prepared by in vitro transcription and translation (other)
chain: B1 chain
modifications: 35S-labeled
